Consider one protein from US20050106100.

Data set [1] concerns the target T1, Ac-Csa-PLG˜Hphe-YL-Ambh-Hynic (not fully specified).
T1 chain: XPLGXYL

Data set [2] addresses T2, Ac-NGlu-PLG˜Hphe-YL-Ambh-Hynic (not fully specified).
T2 chain: XPLGXYL

A further data set has as its target T3, Ac-PLG˜Hphe-YL-Hynic.
T3 chain: PLGXYL

In another data set the target is T4, Ac-POG˜Hphe-L-Hynic.
T4 chain: PXGXL

The target of a further data set is T5, Ac-NGlu-POG˜Hphe-L-Hynic (not fully specified).
T5 chain: XPXGXL

A further data set addresses T6, Ac-POG˜Hphe-L-Ambh-Hynic.
T6 chain: PXGXL

Data set [3] concerns the target T7, Ac-PLG˜Hphe-YL-Ahxh-Hynic (not fully specified).
T7 chain: PLGXYL

Data set [4] has as its target T8, Ac-PLG˜Hphe-OL-Ambh-Hynic.
T8 chain: PLGXXL

B1: mouse MMP9 (protein)
chain: FQTFKGLKWDHHNITYWIQNYSEDLPRDMIDDAFARAFAVWGEVAPLTFTRVYGPEADIVIQFGVAEHGDGYPFDGKDGLLAHAFPPGAGVQGDAHFDDDELWSLGKGVVIPTYYGNSNGAPCHFPFTFEGRSYSACTTDGRNDGTPWCSTTADYDKDGKFGFCPSERLYTEHGNGEGKPCVFPFIFEGRSYSACTTKGRSDGYRWCATTANYDQDKLYGFCPTRVDATVVGGNSAGELCVFPFVFLGKQYSSCTSDGRRDGRLWCATTSNFDTDKKWGFCPDQGYSLFLVAAHEFGHALGLDHSSVPEALMYPLYSYLEGFPLNKDDIDGIQYLYGRGSKPDPRPPATTTTEPQPTAPPTMCPTIPPTAYPTVGPTVGPTGAPSPGPTSSPSPGPTGAPSPGPTAPPTAGSSEASTESLSPADNPCNVDVFDAIAEIQGALHFFKDGWYWKFLNHRGSPLQGPFLTARTWPALPATLDSAFEDPQTKRVFFFSGRQMWVYTGKTVLGPRSLDKLGLGPEVTHVSGLLPRRLGKALLFSKGRVWRFDLKSQKVDPQSVIRVDKEFSGVPWNSHDIFQYQDKAYFCHGKFFWRVSFQNEVNKVDHEVNQVDDVGYVTYDLLQCP
On to B1, for which the Kcat/Km in data set [1] was 31000 M⁻¹ s⁻¹; in data set [2], greater than 100000 M⁻¹ s⁻¹; with Ac-PLG˜Hphe-YL-Hynic, greater than 100000 M⁻¹ s⁻¹; with Ac-POG˜Hphe-L-Hynic, 897 M⁻¹ s⁻¹; in the data set with Ac-NGlu-POG˜Hphe-L-Hynic it was 571 M⁻¹ s⁻¹; with Ac-POG˜Hphe-L-Ambh-Hynic it was 14400 M⁻¹ s⁻¹. Besides, the Kcat/Km was greater than 100000 M⁻¹ s⁻¹ in data set [3] and 48000 M⁻¹ s⁻¹ in data set [4].
